# T1: extracellular domain of mIFNgR1 (mouse, UniProt P15261 26-254)
# T1 construct: also called mIFNgR1 ECD; mouse IFNgR1
# T1 sequence: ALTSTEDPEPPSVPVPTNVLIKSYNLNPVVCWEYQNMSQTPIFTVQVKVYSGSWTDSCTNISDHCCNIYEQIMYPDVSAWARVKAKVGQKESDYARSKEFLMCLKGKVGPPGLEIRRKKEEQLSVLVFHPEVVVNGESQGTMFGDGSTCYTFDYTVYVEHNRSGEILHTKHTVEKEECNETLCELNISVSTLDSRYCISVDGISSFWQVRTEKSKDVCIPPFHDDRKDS
# T2: extracellular domain of hIFNgR1 (human, UniProt P15260 18-245)
# T2 construct: also called hIFNgR1 ECD; human IFNgR1
# T2 sequence: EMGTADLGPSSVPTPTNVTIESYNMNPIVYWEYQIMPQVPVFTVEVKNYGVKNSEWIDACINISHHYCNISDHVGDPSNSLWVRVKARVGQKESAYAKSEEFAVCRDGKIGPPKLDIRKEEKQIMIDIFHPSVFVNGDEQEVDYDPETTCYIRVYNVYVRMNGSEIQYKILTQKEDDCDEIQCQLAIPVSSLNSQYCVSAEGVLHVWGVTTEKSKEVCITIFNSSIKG
# B1: DR909 (VHH)
# VHH: EVQLVESGGGLVQAGGSLRLSCAASGRTFGTSFGALSMGWFRQAPGKEREFVAAITRNTGRTFYADSVKDRFTISRDNAKNTASLQMNSLEPEDTAVYICAATNSYDDLRRSYAYNYWGQGTQVTVSS
# notes: also called hIFNgR1 VHH
# B2: DR910 (VHH)
# VHH: EVQLVESGGGLVQTGGSLRLSCAASGRTFSSYAMAWFRQAPGKEREFVAAISILGGSADYEDSVQGRFTISRDNAKNTMYLQMNSLKPEDTAVYYCAARRPAPSDSYWSSTSYAYWGQGTLVTVSS
# notes: also called hIFNgR1 VHH
# B3: DR916 (VHH)
# VHH: EVQLVESGGGLVQPGGSLRLSCTASGRPRTTYAMGWFRQAPGKEREIVAAISKAGGSTYVADSAKGRFAISKDNAKNTVYLQMNSLKPEDTAVYYCAARAGFAAQIFEYDYWGQGTLVTVSS
# notes: also called hIFNgR1 VHH
# B4: DR907 (VHH)
# VHH: EVQLVESGGGLVQAGGSLRLSCAASGRTFSNYAMGWFRQAPGNEREFVAAINWNIGSTYYADSVKGRFTISRDNAKNTVYLQMNSLKPEDTAVYYCGAVWPTGRLRVDSEYDYWGQGTQVTVSS
# notes: also called hIFNgR1 VHH
# B5: DR912 (VHH)
# VHH: EVQLVESGGGLVQAGGSLRLSCAPSGRTFSSYAMAWFRQPPGKEREFVAAITVSGASTYYADSVKGRFTISRDNAKNSMYLQMNSLKPEDTAVYYCAAGGPGTIFPDYDYWGQGTQVTVSS
# notes: also called hIFNgR1 VHH
# B6: DR908 (VHH)
# VHH: EVQLVESGGGLVQAGGSLRVTCAASGRTFTSLAMGWFRQAPGKEREFVAAISRSGGSTDYADSVKGRFFISRDNAKSTLYLQMSSLKPEDTAVYYCAARDYSTLQYYNEYEYSDWGQGTQVTVSS
# notes: also called hIFNgR1 VHH
# B7: DR925 (VHH)
# VHH: EVQLVESGGGLVQAGGSLVLSCAASGRTFSRYAMGWFRQAPGKEREFVAAISIGGGSADYADTVKGRFTISRNNAKNTMYLQMNSLKPEDTAVYYCAARTPRPSSSYFTPQDYEYWGQGTLVTVSS
# notes: also called hIFNgR1 VHH
# B8: DR903 (VHH)
# VHH: EVQLVESGGGLVQAGGSLRLSCAASGRIASDYTRGWFRQAPGKEREFVAAIIRSVGDSYYADSVKGRFTISIDNAENTVYLQMNSLKPEDTAVYYCAVGGHLYYGSRWRYPASYDYWGQGTQVTVSS
# notes: also called hIFNgR1 VHH
# B9: DR918 (VHH)
# VHH: EVQLVESGGGLVQAGGSLRLSCATSGLTDSTYGMAWFRQAPGKEREFVAAISRAGGSADHADSVKGRFTVSRDNAKKMVYLQMNSLKPEDTAVYYCASGRSYSSPYDYFNALAYSYWGQGTQVTVSS
# notes: also called hIFNgR1 VHH
# B10: DR917 (VHH)
# VHH: EVQLVESGGGLVQAGGSLRLSCAASGRTFSGYNMGWFRQAPGKEREFVAAIAWAGSRTYYTDSVKGRFTISRDNAKNTMYLQMNTLRPEDTAVYYCAAHDETYYRLDRVDLYTHWGQGTLVTVSS
# notes: also called hIFNgR1 VHH
# B11: DR924 (VHH)
# VHH: QVQLVESGGGLVQAGGSLRLSCTASGRTFSRYAMGWFRQAPGKEREFVATISRSGGTTSYANSVKGRFTISRDNAKNTVYLQMNSLKTEDTAVYNCAARDGPAMGVFGSDYDYWGQGTLVTVSS
# notes: also called hIFNgR1 VHH
# B12: DR913 (VHH)
# VHH: EVQLVESGGGLVQAGGFLRLSCAASGRTFSSYAMGWFRQIPGKERELVAAISSWSGGSTYYADSVKGRFTISRDNAKNTVYLQMLSLKPEDTAVYYCTTGDYYSDYFKYDNENWGKGTQVTVSS
# notes: also called hIFNgR1 VHH
# B13: DR906 (VHH)
# VHH: EVQLVESGGGLVQAGGSLRLSCAASGSTFSTYVMGWFRQAPGKEREFVAAISRSGGTTTYADSVKGRFDISRDNGKNTLFLQMNSLIPEDTAAYYCAARAGPAIGRTANDYHSWGQGTLVTVSS
# notes: also called hIFNgR1 VHH
# B14: DR911 (VHH)
# VHH: EVQLVESGGALVQAGGSLRLSCTVSGRSFSTYAMAWFRRAPGKERELVSAITVGGGSTYYVDSVKGRFTISRENAKNTLYLQMNNLKPEDTAIYICAARDYRRRSYAPEAEQYDYWGQGTQVTVSS
# notes: also called hIFNgR1 VHH
# B15: DR905 (VHH)
# VHH: EVQLVESGGGLVQAGGSLRLSCVASGRTFTGYAMGWFRQAPGKEREFVAVITWSGATTYYSASVKGRFTLSRDNAKNTVYLQMNSLKSEDTAVYYCAIRIRDGVSPENPNEYGYWGQGTQVTVSS
# notes: also called hIFNgR1 VHH
# B16: DR920 (VHH)
# VHH: EVQLVESGGGLVQAGGSLRLSCAASGRSFANYAMGWFRQAPGKERETVAAISRGGGSTWYADSVKGRFTISKDNAKNTVYLQMNSLKPEDTAIYYCAARSYSGSYTYSFGEYDYWGQGTQVTVSS
# notes: also called hIFNgR1 VHH
# B17: DR922 (VHH)
# VHH: QVQLVESGGGLVRAGGSLRLSCAASGSITSINTMGWFRQAPGKQRELVAAITSGGSTNYADSVKGRFTISRDNARNTVYLQMYSLKPEDTAVYYCEADSMYFRGQGTQVTVSS
# notes: also called hIFNgR1 VHH
# B18: DR926 (VHH)
# VHH: EVQLVESGGGLVQAGGSLRLSCAASGRTFSRYAMNWFRQAPGKEREFVAAISWSSGNTYVADSVKGRFTISRDNAKNTMYLQMNNLAPEDTAVYYCAATTIATMSDENTYWGQGTQVTVSS
# notes: also called hIFNgR1 VHH
# B19: DR915 (VHH)
# VHH: EVQLVESGGGLVQAGGSLRLSCAAARRTLHNFAMAWFRQAPGKEREFVAAISKGGGSADYADSVKGRFTISRDNAKNTVYLQMNSLKPEDTAVYYCAANDLASYSDSSYTSTSRYDYWGQGTQVTVSS
# notes: also called hIFNgR1 VHH
# B20: DR923 (VHH)
# VHH: QVQLVESGGGLVQAGGSLRLSCAASRRTFMTYAMGWFRQAPGKEREFVAAISWSSGSTYYADSVKGRFTISRDNAKNTMYLQMNSLKPEDTAVYYCTASSIATMYGPNDYAGQGTLVTVSS
# notes: also called hIFNgR1 VHH
# B21: DR914 (VHH)
# VHH: EVQLVESGGGLVQAGGSLTLSCVASGRAFSNSAMAWFRQTPGKEREFVSAISRGGGSTDYADSVKGRFTISKDNAKNTVYLQMNSLKPEDTAVYYCAMRYYSGRYYESLEYDYWGQGTQVTVSS
# notes: also called hIFNgR1 VHH
# B22: DR919 (VHH)
# VHH: EVQLVESGGGLVQPGGFLRLSCAASRRTLSTYAMGWFRQAPGKEREFVAAISWRSGNTYYADSVKGRFTISRDNAKNTMYLQMNSLKPEDTAVYYCAANEVATMSGPHDHWGQGTLVTVSS
# notes: also called hIFNgR1 VHH
# B23: DR904 (VHH)
# VHH: EVQLVESGGGLVQAGGSLRLSCEASESILSINTMGWFRQAPGKQRELVAAISSGGSTNYADSVKGRFTISRDNAKNTVYLQMNSLKPEDTAVYYCDADRAYYKGQGTQVTVSS
# notes: also called hIFNgR1 VHH
# B24: DR921 (VHH)
# VHH: QVQLVESGGGLVQAGDSLRLSCAASGRTFTFSTHNMGWFRQAPGKEREFVGGIMWTSRASYADSVKGRFTVSRDNAKNTVYLQMNSLKPEDTAVYYCAAAWYGNSGASYDYWGQGTQVTVSS
# notes: also called hIFNgR1 VHH
# Target: T1, extracellular domain of mIFNgR1
# Assay: flow cytometry, cross-reactivity
row,binding result,Binder
1,binds,B1
2,binds,B2
3,binds,B3
4,binds,B4
5,binds,B5
6,binds,B6
7,binds,B7
8,binds,B8
9,binds,B9
10,binds,B10
11,binds,B11
12,binds,B12
13,binds,B13
14,binds,B14
15,binds,B15
16,binds,B16
17,binds,B17
18,binds,B18
19,binds,B19
20,binds,B20
21,binds,B21

# Target: T2, extracellular domain of hIFNgR1
# Assay: periplasmic extract ELISA on coated antigen
# Method: Upon completion of the biopanning of Example 3, three 96-well plates of individual phage clones were isolated in order to perform periplasmic extract ELISA (PE-ELISA) on IFNgR1 coated plates to identify positive VHH binders that selectively bound IFNgR1. A 96-well plate was coated with IFNgR1 and PBS under the same conditions. Next, wells were blocked at 37° C. for 1 h. Then, […] was added to each well and incubated for 1 h. Subsequently, 100 μl of anti-tag polyclonal antibody conjugated to HRP was added to each well and incubated at 37° C. for 1 h. Plates were developed with TMB substrate. The reaction was stopped by the addition of H2SO4. Absorbance at 450 nm was read on a microtiter plate reader. Antibodies with absorbance of the antigen-coated well at least threefold greater than PBS-coated control were considered to provide specific binding to IFNgR1. Positive clones were sequenced, and sequences analyzed to identify unique clonotypes
row,binding result,Binder
1,binds,B22
2,binds,B3
3,binds,B5
4,binds,B7
5,binds,B8
6,binds,B9
7,binds,B10
8,binds,B11
9,binds,B12
10,binds,B23
11,binds,B16
12,binds,B24
13,binds,B17
14,binds,B18
15,binds,B19
16,binds,B20
17,binds,B21

# Target: T2, extracellular domain of hIFNgR1
# Assay: flow cytometry
row,binding result,Binder
1,binds,B1
2,binds,B2
3,binds,B4
4,binds,B6
5,binds,B13
6,binds,B14
7,binds,B15

# Reference: US20230365696A1 (SYNTHEKINE, published 2023)
